Results on one molecule are retold here after patent US12428658B2, “Methods and compositions for enzymatic polymerization of N3′→P5′ phosphoramidate DNA” (The General Hospital Corporation, priority 2019, dated 2025).

The test system of data set [1] is 3′-amino terminal DNA primer / DNA template duplex. Briefly: 3′-amino primer extension assay (single nucleotide addition, pre-steady-state NP activity). Type of data set: biochemical. The protocol: (§1) Primer extension assays. Except where indicated, all extension reactions were performed with 1 μM fluorescein-labeled primer, 1.5 μM template, and ˜1.1 μM purified His6-tagged protein at 55° C. in a reaction buffer composed of 40 mM Tris-HCl, pH 8.8, 1 mM DTT, and a divalent cation as specified, typically 10 mM CaCl2. Reaction mixtures were equilibrated at the indicated reaction temperature for 1 min and initiated by addition of substrate. Progress was monitored by sampling 1 μL from the reaction manually quenched into 24 μL of chilled 90% formamide, 10 mM EDTA. Quenched samples were denatured at 90° C. for 1 min and cooled to room temperature prior to separation by denaturing polyacrylamide gel electrophoresis on 20% TBE-urea gels. To maintain strand separation for long extension products, as in FIGS. 3F-31I, an unlabeled DNA oligonucleotide complementary to the template was added to the quenching buffer (˜2 μM) prior to denaturation. Typically, 3 or 4 μL of quenched sample was loaded per lane for gels of 0.75-mm thickness. Bands were visualized with a Typhoon laser scanning imager (GE Amersham) and quantified with the manufacturer's software. For acid digestion of extended products, a reaction sample was diluted with 2.5 volumes of 1% acetic acid, 10 mM EDTA in formamide and digested at 75° C. for 45 min prior to gel separation.

For data set [2], the system named is 3′-amino terminal DNA primer / mixed sequence template duplex. Put plainly: Multiple-turnover NP-DNA synthesis by 3′-amino primer extension with all four nNTPs on a mixed sequence template. It is filed as biochemical. Particulars: 55° C., Ca2+. The protocol:
as §1

Where two headings read alike, the source gives them in different places.

B1: F710Y: B. stearothermophilus DNA polymerase I large fragment (BF) with single active site mutation F710Y in the O helix (protein, listed as Bacillus stearothermophilus)
chain: MKNKLVLIDGNSVAYRAFFALPLLHNDKGIHTNAVYGFTMMLNKILAEEQPTHILVAFDAGKTTFRHETFQDYKGGRQQTPPELSEQFPLLRELLKAYRIPAYELDHYEADDIIGTMAARAEREGFAVKVISGDRDLTQLASPQVTVEITKKGITDIESYTPETVVEKYGLTPEQIVDLKGLMGDKSDNIPGVPGIGEKTAVKLLKQFGTVENVLASIDEIKGEKLKENLRQYRDLALLSKQLAAICRDAPVELTLDDIVYKGEDREKVVALFQELGFQSFLDKMAVQTDEGEKPLAGMDFAIADSVTDEMLADKAALVVEVVGDNYHHAPIVGIALANERGRFFLRPETALADPKFLAWLGDETKKKTMFDSKRAAVALKWKGIELRGVVFDLLLAAYLLDPAQAAGDVAAVAKMHQYEAVRSDEAVYGKGAKRTVPDEPTLAEHLVRKAAAIWALEEPLMDELRRNEQDRLLTELEQPLAGILANMEFTGVKVDTKRLEQMGAELTEQLQAVERRIYELAGQEFNINSPKQLGTVLFDKLQLPVLKKTKTGYSTSADVLEKLAPHHEIVEHILHYRQLGKLQSTYIEGLLKVVHPVTGKVHTMFNQALTQTGRLSSVEPNLQNIPIRLEEGRKIRQAFVPSEPDWLIFAADYSQIELRVLAHIAEDDNLIEAFRRGLDIHTKTAMDIFHVSEEDVTANMRRQAKAVNYGIVYGISDYGLAQNLNITRKEAAEFIERYFASFPGVKQYMDNIVQEAKQKGYVTTLLHRRRYLPDITSRNFNVRSFAERTAMNTPIQGSAADIIKKAMIDLSVRLREERLQARLLLQVHDELILEAPKEEIERLCRLVPEVMEQAVTLRVPLKVDYHYGPTWYDAK
On to B1, for which, in data set [1] (10 mM CaCl2, pre-steady-state), the “Selectivity dCTP/nCTP, ratio (kpol/Kd, app)dCTP/(kpol/Kd, app)nCTP” value is reported as 9. For the same molecule, the Kd turned out to be 1100 nM in data set [1] (3′-amino primer extension, 10 mM CaCl2, pre-steady-state, read-out: Kd, app dCTP) and 3600 nM in data set [1] (3′-amino primer extension, 10 mM CaCl2, pre-steady-state, read-out: Kd, app nCTP). For the same molecule, in data set [1] (3′-amino primer extension, varying dCTP, 10 mM CaCl2, pre-steady-state, 55° C., pH 8.8), the “kpol dCTP” value was found to be 0.191 min⁻¹. In addition, the “kpol nCTP” value in data set [1] (3′-amino primer extension, varying nCTP, 10 mM CaCl2, pre-steady-state, 55° C., pH 8.8) was 0.069 min⁻¹. The “increase in kpol for dCTP vs. wild-type” value in data set [1] (Ca2+ cofactor) is listed as 2.6 fold. The “increase in kpol for nCTP (NP activity) vs. wild-type” value in data set [1] (Ca2+ cofactor) is on record as 21 fold. In addition, the “transient kpol/Kd for NP-DNA synthesis with Ca2+” value in data set [1] (nCTP, Ca2+, from Table 4) is 320 M⁻¹ s⁻¹. Also, the “maximum reaction velocity / NP activity, Ca2+ vs. Mg2+” value in data set [1] (saturating Ca2+ vs. Mg2+, faster with Ca2+) came to 5 fold. Moreover, the “apparent binding affinity for nCTP vs. dCTP, effect of the mutation” value in data set [1] (with Ca2+) is reported as “unaffected”. For the same molecule, the “kinetic disadvantage of NP-DNA polymerase activity relative to native phosphodiester bond forming activity” value in data set [1] (with F710Y) was “approximately four orders-of-magnitude”. Moreover, the “time to full length +28 nt NP-DNA product” value in data set [2] is less than 24 h.
